The conditions of data set [1]: previously reported (De Santo 2018); cited from earlier work.
The conditions of data set [2]: human, in vivo; cited from earlier work.
The test system of data set [3] is WT C57BL/6J mice subjected to retinal ischemia-reperfusion (IR) injury. Nature of the data set: Retinal ischemia-reperfusion (IR) injury: neuronal survival by NeuN labeling of retinal flat-mounts. The class given is in vivo, mouse. As to conditions: 25 mg/kg i.p. at 3 hours and day 4, 7 days post-injury; vehicle group 40%. On the procedure:
Mouse retinal ischemia-reperfusion (IR) injury and traumatic optic neuropathy (TON) models: All experiments were performed in accordance with the ARVO Statement for the Use of Animals in Ophthalmic and Vision Research and were approved by the institutional animal care and use committee (Animal Welfare Assurance no. D16-00197). Wild-type (WT) C57BL/6J mice (10-12 weeks old) were anesthetized using ketamine/xylazine mixture then subjected to retinal ischemia-reperfusion (IR) injury or optic nerve crush (ONC) to model traumatic optic neuropathy (TON) as described in Shosha, et al., Cell death & disease, 7:e2483-e (2016) and Xu, et al., Frontiers in Neuroscience, 12:970 (2018). […]
Evaluation of retinal neurodegeneration: Retina flat-mounts and explants were immunolabeled for the neuronal marker, NeuN (Millipore), as previously described in Shosha, et al., Cell death & disease, 7:e2483-e (2016). Images were collected and analyzed in a blinded fashion using a semi-automated method. […] NeuN-positive cells were quantified using ImageJ software ‘Batch processing’ function. […] The macro was validated every time it was used to make sure it is compatible with the set of images being analyzed. […]

Data set [4] has as its system OIR retinas (TNFα, IL-6, MCP1, iNOS, A1, FGF2, CNTF, IL-10 mRNA). Nature of the data set: OIR mouse model: qPCR of retinal inflammation markers and growth factors. Format: in vivo. On the procedure:
PBS was used as vehicle control. Pups were anesthetized before treatment by intraperitoneal (i.p.) injection of ketamine/xylazine mixture. Intravitreal injections were performed using a 36-gauge NanoFil needle mounted to a 10-μL Hamilton syringe (World Precision Instruments). Two treatment strategies were employed. […] The P9 time point was selected based on the fact that vaso-obliteration occurs within the first 48 hours of hyperoxia treatment (Connor, et al., Nature Protocols, 4:1565-1573 (2009); Lange, et al., Graefe's archive for clinical and experimental ophthalmology, 247:1205-1211 (2009); Gu, et al., Investigative ophthalmology & visual science, 43:496-502 (2002)).
However, variability was relatively high in the OIR retinas and this protective effect was statistically significant only for TNFα.
On the technique in general: Quantitative PCR measures a nucleic acid by following its amplification.

For data set [5], the system named is bone marrow-derived macrophages (BMDMs). Nature of the data set: PEG-A1 intracellular uptake by bone marrow-derived macrophages (anti-PEG Western blot). As to conditions: BMDMs treated overnight, washed with PBS. The class given is cell-based, mouse. Here is the method: BMDMs: Bone marrow-derived macrophages (BMDMs) were freshly isolated from WT mice and differentiated in culture as described in Fouda, A Y, et al., Cell death & Disease, 9:1001 (2018). To determine PEG-A1 intracellular uptake by macrophages, BMDMs were treated overnight with PEG-A1 or vehicle and then washed several times with phosphate buffered saline (PBS) before collection in RIPA buffer for Western blotting.
Previous studies have shown that myeloid specific A1 deletion using the LysM cre mice leads to increased neurodegeneration in the retinal IR model (Fouda, A Y, et al., Cell death & Disease, 9:1001 (2018)). […] To test the effect of possible neuronal A1 deletion on the previously reported IR outcome in these mice, control and myeloid-specific A1 KO retina explants were subjected to OGD/R (3 hours/21 hours) (FIG. 21A). The explant model excludes any effects due to infiltrating myeloid cells. […] To further test if macrophage can incorporate PEG-A1, BMDMs were treated with PEG-A1 or vehicle overnight and then washed with PBS several times before Western blotting.

[6] abbreviates: OIR retinas, P13 or P17, not statistically significant.
[7] abbreviates: OIR retinas, did not reach statistical significance.

B1: PEG-A1: recombinant human arginase (rhArg) covalently attached to methoxy polyethylene glycol (mPEG-SPA; MW 5,000) via succinamide propionic acid (SPA) linker (protein, UniProt P05089 1-322, looked up)
Arginase-1: MSAKSRTIGIIGAPFSKGQPRGGVEEGPTVLRKAGLLEKLKEQECDVKDYGDLPFADIPNDSPFQIVKNPRSVGKASEQLAGKVAEVKKNGRISLVLGGDHSLAIGSISGHARVHPDLGVIWVDAHTDINTPLTTTSGNLHGQPVSFLLKELKGKIPDVPGFSWVTPCISAKDIVYIGLRDVDPGEHYILKTLGIKYFSMTEVDRLGIGKVMEETLSYLLGRKKRPIHLSFDVDGLDPSFTPATGTPVVGGLTYREGLYITEEIYKTGLLSGLDIMEVNPSLGKTPEEVTRTVNTAVAITLACFGLAREGNHKPIDYLNPPK
modifications: mPEG-SPA 5 kDa conjugate
notes: recombinant human arginase (rhArg) covalently attached to methoxy polyethylene glycol (mPEG-SPA; MW 5,000) via succinamide propionic acid (SPA) linker
Take B1: the CNS penetration result in data set [1] was “poor CNS penetration”. Also, the “safety and tolerability in humans” value in data set [2] was “safe and well-tolerated”. In data set [3], the “neuronal survival after retinal IR (NeuN, % of sham retina)” value was 62%. Moreover, in data set [4] (OIR WT retinas), the “iNOS mRNA levels” value was “significantly reduced”. For the same molecule, in data set [4] (OIR retinas), the “A1 mRNA” value was “mRNA upregulation” and the “FGF2 mRNA” value is given as “mRNA upregulation”. In data set [4] (setting [6]), the “IL-6 expression (qPCR)” value is “reduced the expression” and the “MCP1 expression (qPCR)” value was “reduced the expression”. Also, the “TNFα expression (qPCR)” value in data set [4] (OIR retinas, P13 or P17, statistically significant) is listed as “reduced the expression”. Further, in data set [4] (setting [7]), the “CNTF mRNA” value is reported as “mRNA upregulation” and the “IL-10 mRNA” value was “mRNA upregulation”. Moreover, the “anti-PEG band in macrophage cell lysate (intracellular uptake)” value in data set [5] was “strong band”.

(Values after patent US20210340516A1, “COMPOSITIONS CONTAINING ARGINASE 1 FOR THE TREATMENT OF NEUROVASCULAR AND RETINAL VASCULAR DISORDERS” (Augusta University Research Institute, Inc., priority 2020, published 2021).)
